From US20100239587A1 (published 2010)
One block for each binder: values may come before it. Bridge positions count the residues as written; N and C are the ends. Ends that are not written are not given here.

What was measured:
[1] = biological target: TNF receptor (immobilized control); experiment: SPR, receptor immobilized, peptide injected
[2] = biological target: T1, ErbB1 extracellular domain (recombinant, soluble) (UniProt P00533 25-645, limits assumed); experiment: SPR; 10 µM peptide pre-injected over immobilized ErbB1; competitor: ErbB3 ectodomain (300 nM) with HRGβ1 (5 µM)
T1 construct: extracellular domain; also called erbB1 ectodomain; EGFr

[3] = biological target: T2, ErbB2 extracellular domain (recombinant) (UniProt P04626 23-652, limits assumed); experiment: SPR; 10 µM peptide pre-injected over immobilized ErbB2; competitor: ErbB3 ectodomain (300 nM) with HRGβ1 (5 µM)
T2 construct: extracellular domain; also called erbB2 ectodomain; full-size erbB2 ectodomain

[4] = biological target: T3, ErbB3 extracellular domain (recombinant, soluble) (UniProt P21860 20-643, limits assumed); experiment: SPR; 10 µM peptide pre-injected over immobilized ErbB3; competitor: ErbB3 ectodomain (300 nM) with HRGβ1 (5 µM)
T3 construct: extracellular domain; Used both immobilized and as the injected analyte (300 nM, alone or with 5 µM HRGβ1); also called erbB3 ectodomain
T3 sequence (P21860 20-643 limits assumed): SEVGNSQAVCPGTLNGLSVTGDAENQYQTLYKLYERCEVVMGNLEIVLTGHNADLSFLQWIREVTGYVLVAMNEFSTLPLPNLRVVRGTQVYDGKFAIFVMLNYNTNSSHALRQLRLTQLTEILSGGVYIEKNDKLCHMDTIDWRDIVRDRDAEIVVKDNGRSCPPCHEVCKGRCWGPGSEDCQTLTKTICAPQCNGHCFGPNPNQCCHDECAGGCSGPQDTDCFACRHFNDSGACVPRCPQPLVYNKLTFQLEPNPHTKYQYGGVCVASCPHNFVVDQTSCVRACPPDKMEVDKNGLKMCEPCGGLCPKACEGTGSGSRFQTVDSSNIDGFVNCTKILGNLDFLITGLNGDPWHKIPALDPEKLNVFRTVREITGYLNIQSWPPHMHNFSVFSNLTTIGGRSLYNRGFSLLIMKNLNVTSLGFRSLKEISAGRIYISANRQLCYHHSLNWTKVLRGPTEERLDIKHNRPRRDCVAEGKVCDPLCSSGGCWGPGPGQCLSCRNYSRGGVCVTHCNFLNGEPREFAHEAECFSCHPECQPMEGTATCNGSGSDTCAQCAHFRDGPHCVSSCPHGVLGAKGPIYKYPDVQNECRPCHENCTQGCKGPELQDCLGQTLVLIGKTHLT

- Kd [1]: > 1000 µM
B1: B2-S22-AFA (peptide)
peptide: YCFPDEEGACY
modifications: disulfide 2-10 (inferred)
notes: Cyclic peptide that mimics part of the S22 loop of erbB2

- Kd [1]: > 1000 µM
Binder: YCLVWKYADAGCY (disulfide 2-12 (inferred), Derived from the S22 repeat of erbB1) [B1-S22-ALG]

- Kd [1]: > 1000 µM
Binder: YCPIWKFPDEECY (disulfide 2-12 (inferred), Derived from the S22 repeat of erbB2) [B2-S22-APE]

- Kd [1]: > 1000 µM
- Percent Inhibition [2]: 2.4%
- Percent Inhibition [3]: -1.2%
- Percent Inhibition [4]: 3.1%
B2: CD4-G (peptide)
peptide: FCYIGEVEDQCY
modifications: disulfide 2-11 (inferred)
notes: Negative control peptide; also called CD4 receptor-derived cyclic peptide; control peptide

- Kd [1]: > 1000 µM
Binder: YCFIFKYADPDCY (disulfide 2-12 (inferred), Derived from the S22 repeat of erbB4) [B4-S22-AFD]

- Kd [1]: > 1000 µM
Binder: YCPIYKYPDVQCY (disulfide 2-12 (inferred), Derived from the S22 repeat of erbB3) [B3-S22-APQ]
